In paper PMC8383165:

Molecular target: GHSR with a TAG amber codon at F71^1.60 and a single reactive cysteine at position 255^6.27, doubly labelled (UniProt Q92847)
Chain of UniProt Q92847 (Q92847 1-70): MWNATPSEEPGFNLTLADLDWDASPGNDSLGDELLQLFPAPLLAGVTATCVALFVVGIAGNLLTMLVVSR

Substance: LEAP2 (1–14) (peptide)
- proximity ratio change from the intramolecular FRET between fluorophores in TM1 and TM6 of GHSR, in lipid nanodiscs with D2R: 13.3

Substance: LEAP2 (1–12) (peptide)
- proximity ratio change from the intramolecular FRET between fluorophores in TM1 and TM6 of GHSR, in lipid nanodiscs with D2R, 10 µM peptide: 11.9
